First the molecules themselves.
B1: Azoarcus group I ribozyme (parent)
chain: GUGCCUUGCGCCGGGAAACCACGCAAGGGAUGGUGUCAAAUUCGGCGAAACCUAAGCGCCCGCCCGGGCGUAUGGCAACGCCGAGCCAAGCUUCGGCGCCUGCGCCGAUGAAGGUGUAGAGACUAGACGGCACCCACCUAAGGCAAACGCUAUGGUGAAGGCAUAGUCCAGGGAGUGGCGAAAGUCACACAAACCGG

Variants of B1 are the subject of this series. As to the kind of experiment: reverse-splicing fitness (ratio to wild type); higher = more active; in vitro selection; Mg2+ level not given. The method, boiled down: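 An in vitro group I ribozyme library with randomized positions was T7-transcribed and gel-purified. In triplicate, 10 pmol RNA in EPPS pH 7.5 was reacted with 50 pmoles of a 30-nt RNA substrate for 1 h at 37 °C across several added MgCl2 levels (1–48 mM), then stopped with EDTA. Products were reverse transcribed from a substrate-complementary primer, PCR-amplified and sequenced (HiSeq 4000). Fitness is a variant's read proportion after selection over that before, normalised to wild type.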
In the case of C82A A120G C169U, the reverse-splicing fitness came to 0.0166. With C82A A120U A145G U176C, the reverse-splicing fitness is 0.0599. Regarding C82A A120U A145G U176G, the reverse-splicing fitness worked out at 0.0073. With C82A A120U A145G U176A, the reverse-splicing fitness stood at 0.0348. As for C82A A120U A145G C150U, the reverse-splicing fitness came to 0.116. C82A A120U A145G C150A: the reverse-splicing fitness was determined as 0.0231. The same measure for C82A A120U A145G C150G: 0.0192; for C82A A120U A145U C150A C169A U176G: 0.00186; for C82A A120U A145U C150A C169A U176A: 0.0022. Consider C82A A120U A145U C150A C169A U176C, for which the reverse-splicing fitness was 0.00188. As for C82A A120U A145U C150A U176A, the reverse-splicing fitness was 0.00611. For C82A A120U A145U C150A U176C, the reverse-splicing fitness is 0.0092. In the case of C82A A120U A145U C150A U176G, the reverse-splicing fitness worked out at 0.00276. C82A A120U A145G C150G C169A U176A: the reverse-splicing fitness is 0.0135. For C82A A120U A145G C150G C169A U176G, the reverse-splicing fitness came to 0.00515. For C82A A120U A145G C150G C169A U176C, the reverse-splicing fitness is 0.0082. With C82A A120G C169A U176A, the reverse-splicing fitness amounted to 0.0187.

Turning to C82A A120G C169A U176C, the reverse-splicing fitness turned out to be 0.0236. For C82A A120G C169A U176G, the reverse-splicing fitness came out at 0.00374. The same measure for C82A A120U A145C C150G C169G: 0.0026.

On to C82A A120U A145C C150G C169U, for which the reverse-splicing fitness is 0.00298. Take C82A A120U A145C C150G C169A: the reverse-splicing fitness was found to be 0.00259. With C82A A120U A145G C150U C169G U176C, the reverse-splicing fitness was determined as 0.0042. With C82A A120U A145G C150U C169G U176G, the reverse-splicing fitness was 0.00214.

Regarding C82A A120U A145G C150U C169G U176A, the reverse-splicing fitness came out at 0.00591. Turning to C82A A120U A145C C150G C169A U176G, the reverse-splicing fitness came to 0.00213.

In the case of C82A A120U A145C C150G C169A U176C, the reverse-splicing fitness was determined as 0.00155. On to C82A A120U A145C C150G C169A U176A, for which the reverse-splicing fitness came to 0.00254. On to C82A A120U A145C C150A C169U U176A, for which the reverse-splicing fitness turned out to be 0.00259. On to C82A A120U A145C C150A C169U U176G, for which the reverse-splicing fitness came out at 0.00218. For C82A A120U A145C C150A C169U U176C the value was 0.00188. With C82A A120U A145U C150A C169A, the reverse-splicing fitness amounted to 0.00213. Consider C82A A120U A145U C150A C169G, for which the reverse-splicing fitness was found to be 0.00217. Take C82A A120U A145U C150A C169U: the reverse-splicing fitness was determined as 0.00267.

On to C82A A120U A145G C169G, for which the reverse-splicing fitness was 0.00528.

With C82A A120U A145G C169U, the reverse-splicing fitness was 0.0064. Regarding C82A A120U A145G C169A, the reverse-splicing fitness worked out at 0.00287.

Take C82A A120G C150U C169U U176G: the reverse-splicing fitness was found to be 0.0068. For C82A A120G C150U C169U U176C, the reverse-splicing fitness was 0.0192.

Turning to C82A A120U A145U C150A C169G U176A, the reverse-splicing fitness was 0.00237. The same measure for C82A A120U A145U C150A C169G U176G: 0.00136.

On to C82A A120U A145U C150A C169G U176C, for which the reverse-splicing fitness came to 0.00266.

In the case of C82A A120G U176C, the reverse-splicing fitness was found to be 0.0184. Consider C82A A120G U176A, for which the reverse-splicing fitness turned out to be 0.0137. As for C82A A120G U176G, the reverse-splicing fitness turned out to be 0.00511. For C82A A120U A145C C150A C169G U176G the value was 0.00139; for C82A A120U A145C C150A C169G U176A, 0.00253; for C82A A120U A145C C150A C169G U176C, 0.00352. As to C82A A120U A145C C169A U176G, the reverse-splicing fitness stood at 0.00126. With C82A A120U A145C C169A U176A, the reverse-splicing fitness amounted to 0.00193.

Consider C82A A120U A145C C169A U176C, for which the reverse-splicing fitness is 0.0019. The same measure for C82A A120G C169U U176C: 0.0175.

Turning to C82A A120G C169U U176G, the reverse-splicing fitness was 0.00475. For C82A A120G C169U U176A the value was 0.0233; for C82A A120U A145C C150G U176A, 0.00523; for C82A A120U A145C C150G U176G, 0.00275. For C82A A120U A145C C150G U176C the value was 0.00832; for C82A A120U A145G C150G C169U U176A, 0.00865. C82A A120U A145G C150G C169U U176G: the reverse-splicing fitness came to 0.00419. The same measure for C82A A120U A145G C150G C169U U176C: 0.00657; for C82A A120U A145G C150U C169A U176G: 0.00195. With C82A A120U A145G C150U C169A U176C, the reverse-splicing fitness turned out to be 0.00287. Consider C82A A120U A145G C150U C169A U176A, for which the reverse-splicing fitness was 0.00597. For the variant C82A A120U A145C C150U U176C, the reverse-splicing fitness turned out to be 0.0147. With C82A A120U A145C C150U U176G, the reverse-splicing fitness was 0.00464.

On to C82A A120U A145C C150U U176A, for which the reverse-splicing fitness turned out to be 0.00945. The same measure for C82A A120U A145C: 0.128; for C82A A120U A145U: 0.148; for C82A A120U A145G: 0.142. The same measure for C82A A120U A145G C169U U176C: 0.00364; for C82A A120U A145G C169U U176G: 0.00139; for C82A A120U A145G C169U U176A: 0.00354. As for C82A A120U A145C C150U C169A U176A, the reverse-splicing fitness worked out at 0.00195. Regarding C82A A120U A145C C150U C169A U176C, the reverse-splicing fitness worked out at 0.00251. Consider C82A A120U A145C C150U C169A U176G, for which the reverse-splicing fitness amounted to 0.002. In the case of C82A A120U A145C C150A U176A, the reverse-splicing fitness is 0.00439. As to C82A A120U A145C C150A U176C, the reverse-splicing fitness was 0.0051. In the case of C82A A120U A145C C150A U176G, the reverse-splicing fitness came out at 0.00246. On to C82A A120G C150U U176A, for which the reverse-splicing fitness turned out to be 0.0125. Regarding C82A A120G C150U U176G, the reverse-splicing fitness was found to be 0.00727. With C82A A120G C150U U176C, the reverse-splicing fitness was 0.015. Take C82A A120U A145C C150U C169G U176C: the reverse-splicing fitness was found to be 0.00201. On to C82A A120U A145C C150U C169G U176A, for which the reverse-splicing fitness stood at 0.00237. In the case of C82A A120U A145C C150U C169G U176G, the reverse-splicing fitness is 0.00196.

These data come from the RNAGym collection of RNA variant scans (doi:10.1093/molbev/msab373).
